Results reported in patent US20190353642A1 (WUHAN INSTITUTE OF VIROLOGY CHINESE ACADEMY OF SCIENCES, published 2019).

B1: flag-tagged truncated CD2AP 1-268 aa (other)
chain: MVDYIVEYDYDAVHDDELTIRVGEIIRNVKKLQEEGWLEGELNGRRGMFPDNFVKEIKRETEFKDDSLPIKRERHGNVASLVQRISTYGLPAGGIQPHPQTKNIKKKTKKRQCKVLFEYIPQNEDELELKVGDIIDINEEVEEGWWSGTLNNKLGLFPSNFVKELEVTDDGETHEAQDDSETVLAGPTSPIPSLGNVSETASGSVTQPKKIRGIGFGDIFKEGSVKLRTRTSSSETEEKKPEKPLILQSLGPKTQSVEITKTDTEGKI
notes: not shown: Flag tag
B2: flag-tagged truncated CD2AP 1-330 aa (other)
chain: MVDYIVEYDYDAVHDDELTIRVGEIIRNVKKLQEEGWLEGELNGRRGMFPDNFVKEIKRETEFKDDSLPIKRERHGNVASLVQRISTYGLPAGGIQPHPQTKNIKKKTKKRQCKVLFEYIPQNEDELELKVGDIIDINEEVEEGWWSGTLNNKLGLFPSNFVKELEVTDDGETHEAQDDSETVLAGPTSPIPSLGNVSETASGSVTQPKKIRGIGFGDIFKEGSVKLRTRTSSSETEEKKPEKPLILQSLGPKTQSVEITKTDTEGKIKAKEYCRTLFAYEGTNEDELTFKEGEIIHLISKETGEAGWWRGELNGKEGVFPDNFAVQINE
notes: Contains all three SH3 domains; not shown: Flag tag
B3: flag-tagged truncated CD2AP 1-107 aa (other)
chain: MVDYIVEYDYDAVHDDELTIRVGEIIRNVKKLQEEGWLEGELNGRRGMFPDNFVKEIKRETEFKDDSLPIKRERHGNVASLVQRISTYGLPAGGIQPHPQTKNIKKK
notes: Contains the first SH3 domain; not shown: Flag tag
B4: Flag-tagged NS5A derived from HCV genotype 2a strain JFH1 (pRK-Flag-NS5A), full length (other)
chain: SGSWLRDVWDWVCTILTDFKNWLTSKLFPKLPGLPFISCQKGYKGVWAGTGIMTTRCPCGANISGNVRLGSMRITGPKTCMNTWQGTFPINCYTEGQCAPKPPTNYKTAIWRVAASEYAEVTQHGSYSYVTGLTTDNLKIPCQLPSPEFFSWVDGVQIHRFAPTPKPFFRDEVSFCVGLNSYAVGSQLPCEPEPDADVLRSMLTDPPHITAETAARRLARGSPPSEASSSVSQLSAPSLRATCTTHSNTYDVDMVDANLLMEGGVAQTEPESRVPVLDFLEPMAEEESDLEPSIPSECMLPRSGFPRALPAWARPDYNPPLVESWRRPDYQPPTVAGCALPPPKKAPTPPPRRRRTVGLSESTISEALQQLAIKTFGQPPSSGDAGSSTGAGAAESGGPTSPGEPAPSETGSASSMPPLEGEPGDPDLESDQVELQPPPQGGGVAPGSGSGSWSTCSEEDDTTVCC
notes: not shown: Flag tag from vector pRK-7 Flag
B5: NS5A of HCV JFH1 in infected Huh7.5.1 cells (other)
chain: B4 chain
notes: also called endogenous NS5A
B6: HA-tagged full length NS5A (other)
chain: B4 chain
notes: also called HA-tagged NS5A; not shown: HA tag from vector pRK-7 HA

Columns and labels:
[1] = target: B6; assay: co-IP with anti-flag antibody, HEK 293T cells, blot with anti-HA
[2] = target: T1, HA-tagged CD2AP (pRK-HA-CD2AP), human, full length (human, UniProt Q9Y5K6 1-639); assay: co-IP with anti-flag antibody from HEK 293T cells over-expressing both, blot with anti-HA
T1 construct: Over-expressed in HEK 293T cells and tested in cell lysate by co-IP; also called CD2 associated protein; not shown: HA tag from vector pRK-7 HA

[3] = target: T2, CD2AP, endogenous, in Huh7.5.1 cells (human, UniProt Q9Y5K6 1-639); assay: endogenous co-IP, both directions, Huh7.5.1 cells infected with HCV JFH1
T2 construct: Endogenous protein of human hepatoma Huh7.5.1 cells, in cell lysate

[4] = target: T3, flag-tagged truncated CD2AP 60-639 aa (human, UniProt Q9Y5K6 60-639); assay: co-IP with anti-flag antibody, HEK 293T cells, blot with anti-HA
T3 construct: No first SH3 domain, all other CD2AP domains kept; also called CD2AP lacking the first SH3 domain; not shown: Flag tag

[5] = target: T4, flag-tagged CD2AP 1-639 aa (full length) (human, UniProt Q9Y5K6 1-639); assay: as above
T4 construct: also called Full length CD2AP; not shown: Flag tag

T3 sequence (Q9Y5K6 60-639): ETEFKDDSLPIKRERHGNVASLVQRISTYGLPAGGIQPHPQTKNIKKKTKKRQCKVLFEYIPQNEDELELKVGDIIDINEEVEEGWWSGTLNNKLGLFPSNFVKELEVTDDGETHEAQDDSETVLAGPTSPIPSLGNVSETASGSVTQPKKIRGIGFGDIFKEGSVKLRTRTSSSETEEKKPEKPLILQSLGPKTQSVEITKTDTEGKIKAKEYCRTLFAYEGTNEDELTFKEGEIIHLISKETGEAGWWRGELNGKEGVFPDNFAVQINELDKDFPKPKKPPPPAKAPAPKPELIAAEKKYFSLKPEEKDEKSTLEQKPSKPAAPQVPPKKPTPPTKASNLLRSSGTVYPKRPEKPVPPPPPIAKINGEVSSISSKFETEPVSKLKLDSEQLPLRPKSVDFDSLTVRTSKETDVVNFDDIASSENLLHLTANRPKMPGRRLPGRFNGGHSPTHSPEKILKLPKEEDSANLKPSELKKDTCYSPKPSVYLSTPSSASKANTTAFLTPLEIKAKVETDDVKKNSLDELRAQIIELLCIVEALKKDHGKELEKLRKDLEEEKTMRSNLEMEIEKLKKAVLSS

B1: binds [1].

B2: binds [1].

B3: binds [1].

B4: binds [2].

B5: binds [3].

B6: binds [4]; binds [5].
